Data from US20260008852A1 (CRYSTAL BIOSCIENCE, published 2026).

T1: His-tagged human B7-H3 (human, UniProt Q5ZPR3-2 29-245, limits assumed)
T1 construct: Bought His-tagged protein coated on the ELISA plate; also called hu B7-H3; CD276
T1 sequence (looked up): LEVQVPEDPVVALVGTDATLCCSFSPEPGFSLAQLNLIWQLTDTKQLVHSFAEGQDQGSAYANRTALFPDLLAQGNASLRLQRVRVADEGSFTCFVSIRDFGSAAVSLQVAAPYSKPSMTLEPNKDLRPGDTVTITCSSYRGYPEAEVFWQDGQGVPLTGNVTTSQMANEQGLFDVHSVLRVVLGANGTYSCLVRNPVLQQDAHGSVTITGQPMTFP

T2: His-tagged mouse B7-H3 (mouse, UniProt Q8VE98 29-244, limits assumed)
T2 construct: Bought His-tagged protein coated on the ELISA plate; also called mu B7-H3; murine B7-H3
T2 sequence (looked up): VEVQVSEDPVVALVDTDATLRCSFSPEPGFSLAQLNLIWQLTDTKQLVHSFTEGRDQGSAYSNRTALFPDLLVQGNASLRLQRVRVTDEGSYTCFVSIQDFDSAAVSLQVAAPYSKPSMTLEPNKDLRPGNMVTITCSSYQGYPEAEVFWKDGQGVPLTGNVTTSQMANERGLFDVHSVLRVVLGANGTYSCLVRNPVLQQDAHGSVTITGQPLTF

T3: His-tagged cynomolgus monkey B7-H3 (cynomolgus monkey)
T3 chain: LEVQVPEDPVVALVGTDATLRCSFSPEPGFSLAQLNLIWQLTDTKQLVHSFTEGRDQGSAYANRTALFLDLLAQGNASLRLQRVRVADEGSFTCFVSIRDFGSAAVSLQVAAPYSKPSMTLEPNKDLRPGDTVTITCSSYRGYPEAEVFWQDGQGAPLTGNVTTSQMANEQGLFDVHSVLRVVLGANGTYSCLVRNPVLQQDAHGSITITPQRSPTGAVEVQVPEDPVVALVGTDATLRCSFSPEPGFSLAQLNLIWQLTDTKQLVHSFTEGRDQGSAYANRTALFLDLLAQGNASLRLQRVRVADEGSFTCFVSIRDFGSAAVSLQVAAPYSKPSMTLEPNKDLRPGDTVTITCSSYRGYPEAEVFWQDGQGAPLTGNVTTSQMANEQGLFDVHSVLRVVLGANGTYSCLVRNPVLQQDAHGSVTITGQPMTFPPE

T4: B7-H3 on B7-H3-expressing CHO cells (Genescript) (UniProt Q5ZPR3 29-534, limits assumed)
T4 construct: whole, on cells; also called CHO-K1/B7-H3; MFI B7-H3
T4 sequence (looked up): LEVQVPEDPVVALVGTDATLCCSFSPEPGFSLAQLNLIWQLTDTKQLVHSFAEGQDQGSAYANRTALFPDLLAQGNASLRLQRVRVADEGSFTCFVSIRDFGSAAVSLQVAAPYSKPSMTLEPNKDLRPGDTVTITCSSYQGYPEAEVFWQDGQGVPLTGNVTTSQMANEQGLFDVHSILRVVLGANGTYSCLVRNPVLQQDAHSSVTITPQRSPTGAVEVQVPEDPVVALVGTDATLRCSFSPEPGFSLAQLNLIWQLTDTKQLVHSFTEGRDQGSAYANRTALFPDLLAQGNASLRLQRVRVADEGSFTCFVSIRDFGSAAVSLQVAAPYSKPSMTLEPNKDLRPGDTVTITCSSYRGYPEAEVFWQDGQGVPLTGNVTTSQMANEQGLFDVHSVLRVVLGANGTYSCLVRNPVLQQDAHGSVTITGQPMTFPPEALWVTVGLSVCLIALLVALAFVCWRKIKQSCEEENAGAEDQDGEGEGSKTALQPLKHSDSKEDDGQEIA


Experiments:
His-tagged human B7-H3 [1] = molecular target: T1, His-tagged human B7-H3; assay: ELISA OD450 on hu B7-H3 over OD450 on mu B7-H3
Protocol: (§1) The variable regions of heavy and light chains were cloned and assembled into a single chain Fv-Fc (ScFv-Fc) mammalian expression vector. Sanger sequencing was performed by GeneWiz and sequences were evaluated using DNASTAR Lasergene 15. Unique scFv-Fes were transiently expressed in Expi293 cells (Life Technologies, #A14527) grown in Expi293 Expression Medium (Life Technologies, #A1435101) after transfection using the ExpiFectamine transfection reagent and supplements (Life Technologies, #A14524). Cells were incubated for 3-5 days with shaking at 37° C. in a 5% CO2 humidified incubator.

His-tagged human B7-H3 [2] = molecular target: T1, His-tagged human B7-H3; assay: ELISA, coated His-tagged antigen, scFv-Fc 1 ug/ml
Protocol: as §1

His-tagged mouse B7-H3 = molecular target: T2, His-tagged mouse B7-H3; assay: ELISA, coated His-tagged antigen, scFv-Fc 1 ug/ml
Protocol: as §1

[3] = molecular target: T3, His-tagged cynomolgus monkey B7-H3; assay: ELISA, coated His-tagged antigen, scFv-Fc 1 ug/ml
Protocol: as §1

[4] = molecular target: T4, B7-H3 on B7-H3-expressing CHO cells …; assay: flow cytometry, B7-H3-expressing CHO cells, 10 ug/ml
Protocol: Binding of anti-B7-H3 antibodies to cell lines was assessed by flow cytometry. Briefly, approximately 1.5 e5 B7-H3-expressing CHO cells (Genescript) or parent CHO cells (ATCC) were resuspended in FACS buffer (PBS/1% BSA/0.01% NaN3) containing 10 μg/ml of anti-B7-H3 antibodies and incubated for 60 min on ice. […] Cells were then washed twice, resuspended in FACS buffer, and read on an Attune Flow Cytometer (Life Technologies). Data are expressed as Mean Fluorescent Intensities (MFI).

Binder | hu:mu ratio (His-tagged human B7-H3 [1]) | ELISA OD450 @ 1 ug/ml (His-tagged human B7-H3 [2]) [OD450] | ELISA OD450 @ 1 ug/ml (His-tagged mouse B7-H3) [OD450] | ELISA OD450 @ 1 ug/ml [3] [OD450] | MFI @ 10 ug/ml [4] [MFI]
40633p1.1.E6 (scFv, V domains shown, Tested as scFv-Fc (Expi293 supernatant)) VH: EVQLLESGGGLVQPGGSLRLSCAASGLTFSSYAMNWVRQAPGKGLEWVAGIGGSGSSTYHTDSVKGRFTISRDNSKNTLYLQMSSLRAEDAAVYYCAKEDHWSGGMDVWGQGTTVTVSS VL: not shown | 2.44 | 1.39 | 0.572 | 1.53 | 43500
40633p1.1.G3 (scFv, V domains shown, Tested as scFv-Fc (Expi293 supernatant)) VH: EVQLLESGGGLVQPGGSLRLSCAASGLTFSSYAMNWVRQAPGKGLEWVAGIGGSGSSTYHTDSVKGRFTISRDNSKNTLYLQMNSLRAEDAAVYYCAKEDHWSGGMDVWGQGTTVTVSS VL: not shown | 1.28 | 2.14 | 1.68 | 1.89 | 69900
40633p1.1.G7 (scFv, V domains shown, Tested as scFv-Fc (Expi293 supernatant)) VH: EVQLLESGGGLVQPGGSLRLSCAASGFTFSGSAMNWVRQAPGKGLEWVSAINSGGTTIYYADSVKGRFTVSRDNSKNTLYLQMNSLRAEDTAVYYCVKLDFYYGMDVWGEGTTVTVSS VL: QSVVTQPPSASGTPGQRVTVSCSGSSSNVGSKYVQWYQQLPGTAPKLLIYATDRRPSGVPDRFSGSKSGTSASLAISGLQSEDEADYYCASWDDSLNAWVFGGGTKLTVL | 1.15 | 2.16 | 1.87 | 1.95 | 78300
40633p1.1.D11 (scFv, V domains shown, Tested as scFv-Fc (Expi293 supernatant)) VH: EVQLLESGGGLVQPGGSLRLSCAASGFTFRSYAMSWVRQAPGKGLEWVAYIGSSGGTTYYADSVKGRFTISRDNSKNTLYLQMNSLRAEDTAVYYCVKESYYYMDVWGQGTTVTVSS VL: QSVLTQPPSASGTPGQRVTISCSATISNIDINRVSWYQQLPGTAPKLLIFNSQRPSGVPDRFSGSKSGTSASLAISGLQSEDEADYYCATWDDSLNSWVFGGGTKLTVL | 1.18 | 1.72 | 1.45 | 1.91 | 78600
40633p1.1.E4 (scFv, V domains shown, Tested as scFv-Fc (Expi293 supernatant)) VH: EVQLLESGGGLVQPGGSLRLSCAASGFTFSSYWMSWVRQAPGKGLEWVSGISSSGSATYYADSVKGRFTISRDNSKNTLYLQMNSLRAEDTAVYYCARWNDYDIMDVWGQGTTVTVSS VL: not shown | 1.29 | 1.95 | 1.51 | 1.86 | 80000
40633p1.2.D7 (scFv, V domains shown, Tested as scFv-Fc (Expi293 supernatant)) VH: EVQLLESGGSLVQPGGSLRLSCAASGFTFSSYWMSWVRQAPGKGLEWVSGISSSGSATYYADSVKGRFTISRDNSKNTLYLQMNSLRAEDTAVYYCARWNDYDIMDVWGQGTTVTVSS VL: not shown | 1.45 | 2.19 | 1.51 | 1.92 | 75100
40633p1.1.B3 (scFv, V domains shown, Tested as scFv-Fc (Expi293 supernatant)) VH: EVQLLESGGGLVQPGGSLRLSCAASGFTVSYYGMSWVRQAPGKGLEWVSAIKQDGSEKYYADSVKGRFTISRDNSKNTLYLQMNSLRAEDTAVYYCARHWNDYSNAMNVWGQGTTVTVSS VL: QSVLTQPPSASGTPGQRVTISCSGSTSNIGRESVYWYQQLPGTAPKLLIYTIDQRPSGVPDRFSGSKSGTSASLAISGLQSEDEADYYCGTWDDSLNAWVFGGGTKLTVL | 1.11 | 2.04 | 1.83 | 1.89 | 74700

More lines, now with the values ahead:

hu:mu ratio (His-tagged human B7-H3 [1]) | ELISA OD450 @ 1 ug/ml (His-tagged human B7-H3 [2]) [OD450] | ELISA OD450 @ 1 ug/ml (His-tagged mouse B7-H3) [OD450] | ELISA OD450 @ 1 ug/ml [3] [OD450] | MFI @ 10 ug/ml [4] [MFI] | Binder
1.13 | 2.09 | 1.85 | 1.65 | 81100 | 40633p1.1.C11 (scFv, V domains shown, Tested as scFv-Fc (Expi293 supernatant)) VH: EVQLLESGGGLVQPGGSLRLSCAASGFTFSSYWMSWVRQAPGKGLEWVAGINRNGGTTYYADSVKGRFTISRDNSKNTLYLQMNSLRAEDTAVYYCARWNDYDIMDVWGQGTTVTVSS VL: not shown
3.09 | 0.794 | 0.257 | 1.49 | 41000 | 40633p1.1.G5 (scFv, V domains shown, Tested as scFv-Fc (Expi293 supernatant)) VH: EVQLLESGGGLVQPGGSLRLSCAASGFIVNYYGMSWVRQPPGKGLEWVSAIKQDGSEKYYADSVKGRFTISRDNSKTTLYLQMNSLRAEDTAVYYCARHWNDYSNGMNVWGQGTTVTVSS VL: QSVLTQPPSASGTPGQRVTISCSGSWSNIGSYNSHWYQKLPGTAPKLLIYTTDRRPSGVPDRFSGSKSGTSASLAISGLQSEDEADYYCGTWDDSLNVWVFGGGTKLTVL
3.01 | 0.554 | 0.184 | 1.63 | 44000 | 40633p1.1.E3 (scFv, V domains shown, Tested as scFv-Fc (Expi293 supernatant)) VH: EVQLLESGGGLVQPGGSLRLSCAASGFTVSYYGMSWVRQAPGKGLEWVSAIKQDGSEKYYADSVKGRFTISRDNSKNTLYLQMNSLRAEDTAVYYCARHWNDYSNAMNVWGQGTTVTVSS VL: not shown
1.47 | 1.76 | 1.2 | 1.77 | 66800 | 40633p1.1.F2 (scFv, V domains shown, Tested as scFv-Fc (Expi293 supernatant)) VH: EVQLLESGGGLVQPGGSLRLSCVASGLTFNGFAMTWVRQAPGKGLEWVSGISWNSGSIYYADSVKGRFTISRDNSKNTVYLQMSSLRAEDTAIYYCAKNWNDYYNSMDVWGQGTTVTVSS VL: QSVLTQPPSASGTPGQRVTISCSGSRSNIGTKYVYWYQQFPGTAPKLLIYTTDRRPSGVPDRFSGSKSGTSASLAISGLQSEDEADYYCSAWDDRLNAWVFGGGTKLTVL
1.13 | 2.08 | 1.85 | 2.41 | 67600 | 40633p1.2.G9 (scFv, V domains shown, Tested as scFv-Fc (Expi293 supernatant)) VH: EVQLLESGGGLLQPGGSLRLSCAASGFSFSSYGMHWVRQAPGKGLEWVAAINSDGSRIYYADSVEGRFTISRDNSKNTLYLQMNSLRAEDTAVYYCTKYYYHYAMDVWGQGTTVTVSS VL: QSVLTQPPSASGTPGQRVTISCSGSRSDIGATTVNWYQQLPGTAPKLLIYQSHLRPSGVPDRFSGSKSGTSASLAISGLQSEDEADYYCASWDASLNTWVFGGGTKLTVL
1.32 | 2.2 | 1.67 | 1.81 | 60100 | 40633p1.1.G10 (scFv, V domains shown, Tested as scFv-Fc (Expi293 supernatant)) VH: EVQLLESGGGLVEPGGSLRLSCAASGFSFSSYGMHWVRQAPGKGLDWVAVINGEGSGTYYADSVKGRFTISRDNSKSTLYLQMNSLRAEDTAVYYCTKYYYNYAMDVWGQGTTVTVSS VL: QSVLTQPPSASGTPGQRVTISCSGSRTDIGTTSVNWYQQLPGTAPKLLIYQSHQRPSGVPDRFSGSKSGTSASLAISGLQSEDEADYYCASWDASQNTWVFGGGTKLTVL
